Where two headings read alike, the source gives them in different places.
Tests used:
[1] = target: HER3-Fc fusion protein (UniProt P21860); assay: ELISA, coated HER3-Fc, anti-human Fab-HRP
[2] = target: HER3-Fc fusion protein (UniProt P21860); assay: ELISA, coated HER3-Fc, anti-human Fab-HRP; remark: listed apart in the source
[3] = target: HER3-His (UniProt P21860); assay: ELISA, coated His-tagged HER3 ECD, anti-human Fc-HRP

EC50 [1]: 0.2 nM
EC50 [2]: 0.21 nM
EC50 [3]: 0.23 nM
B1: 3-43-IgG (antibody, from a related filing, V domains shown)
VH: QVQLQQSGPGLVKPSQTLSLTCAISGDSVSSNRAAWNWIRQSPSRGLEWLGRTYYRSKWYNDYAQSLKSRITINPDTPKNQFSLQLNSVTPEDTAVYYCARDGQLGLDALDIWGQGTMVTVSS
VL: QAGLTQPPAVSVAPGQTASITCGRDNIGSRSVHWYQQKPGQAPVLVVYDDSDRPAGIPERFSGSNYENTATLTISRVEAGDEADYYCQVWGITSDHVVFGGGTKLTVLC
